Assays:
WT K562 cells = assay: Mini-screen: pooled synthetic intron mini-library in HSV-TK, GCV treatment, full-length intron sequencing from genomic DNA; type: cell-based; conditions: genotype WT (SF3B1+/+) K562; GCV 100 ug/mL; day 6; vector hPGK-PuroR-P2A-HSV-TK
Source text: (§1) Therefore, a massively parallel splicing assay was developed to map and functionally interrogate key sequence features within the synthetic intron. First, a pilot mini-library of eight synthetic introns was synthesized, seven of which were much shorter (lengths of 100-158 nt) than the parent synthetic intron (synMTERFD3i1-250), and each with one or more perturbations to potentially critical features (FIG. 2E). This mini-library was cloned into HSV-TK, introduced into WT or SF3B1-mutant K562 cells with a lentiviral vector at a low multiplicity of infection, and treated with GCV. Relative depletion of each construct was measured by high-throughput sequencing of the entire introns from genomic DNA after six days of treatment (TABLE 1).
(§2) Each synthetic intron used in the mini-library was ordered individually as a gBlock (Integrated DNA Technologies), consisting of the desired intron flanked by homology arms for cloning (5′ arm: […] (SEQ ID NO:158); 3′ arm: […] (SEQ ID NO:159; TABLE 3). The gBlocks were then mixed in equal proportions before being cloned into hPGK-PuroR-P2A-HSV-TK using a previously published strategy for pooled cloning (Thomas, J. D. et al. RNA isoform screens uncover the essentiality and tumor-suppressor activity of ultraconserved poison exons. Nature genetics 52, 84-94 (2020), incorporated herein by reference in its entirety). This intron mix was then amplified using NEBNext High Fidelity Ready Mix (New England Biolabs) and purified using 1.8×AMPure XP SPRI beads (Beckman Coulter). The backbone for the library was amplified using Q5 polymerase (New England Biolabs). The library was transformed and amplified using Endura ElectroCompetent Cells (Lucigen, 60242-2) and large LB plates. The library was maxiprepped using a Macherey-Nagel MaxiPrep kit (Thermo Fisher Scientific, Cat 740414.10).
(§3) WT or SF3B1-mutant K562 cells were infected with lentivirus encoding the mini-library at an MOI of 0.3 and untreated or treated with GCV (100 ug/mL) for 6 days. Genomic DNA was collected at day 6 and the resulting Illumina libraries were sequenced with 2×150 bp reads (Illumina MiSeq). Depletion/enrichment of each construct was estimated as follows. For each sample, reads were normalized to the total reads mapped. The relative fraction of reads mapping to each intron was then estimated by dividing the numbers of normalized reads mapped to an intron by the total reads mapped in the sample. The standard deviation was calculated using the sample proportion P for each intron (σ=sqrt [P(1−P)/n]). A fold-change was calculated for each intron by dividing the proportion of the intron in the treated GCV samples by the fraction of the intron in the untreated samples. Error propagation was used to estimate the standard deviation. The final relative fold-changes were computed by normalizing fold-changes such that the fold-change of synMTERFD3i1-250 in the pilot screen was identical to the experimentally measured fold-change in a single-construct experiment (FIG. 2C, 100 μg/mL of GCV).

SF3B1-mutant K562 cells = assay: as above; type: cell-based; conditions: genotype K700E (SF3B1+/K700E) K562; GCV 100 ug/mL; day 6; vector hPGK-PuroR-P2A-HSV-TK
Source text: as §1, §2, §3

B1: intron_26: 150 nt MTERFD3 intron 1-derived synthetic intron, deletion 25to125; SEQ ID NO 58/66 (nucleic acid)
DNA 1: GTGAGTCGCCCCCTTCCTCTGCTCCGAGAGGGAAATGGGAATTAGGGTGGTGGCAGAGCCCAAAGAGGCCTTGTAGGCCATGGTAAGGCATTTCTATGTTTTATTTTACTTTGTCTTTATCCTAAAATGCCATTGGCAAGTTTATTGCAG
DNA 2: GTGAGTCGCCCCCTTCCTCTGCTCCGAGAGGGAAATGGGAATTAGGGTGGTGGCAGAGCCCAAAGAGGCCTTGTAGGCCATGGTAAGGCATTTCTATGTTTTATTTTACTTTGTCTTTATCCTAAAATGCCATTGGCAAGTTTATTGCAG
B1 was tested, and the “fold-change (estimated fold-change in intron abundance in gDNA)” value (WT K562 cells) was 1.034 and the “fold-change (estimated fold-change in intron abundance in gDNA)” value (SF3B1-mutant K562 cells) was 0.282.

Source: patent US20240018513A1, “SYNTHETIC INTRONS FOR TARGETED GENE EXPRESSION” (FRED HUTCHINSON CANCER CENTER, priority 2020, published 2024)
